Earlier results as cited in article PMC10092198.

Molecular target: C3b (mC3b) C3b (Mus musculus) (UniProt P01027)
UniProt P01027, sequence (P01027 566-669): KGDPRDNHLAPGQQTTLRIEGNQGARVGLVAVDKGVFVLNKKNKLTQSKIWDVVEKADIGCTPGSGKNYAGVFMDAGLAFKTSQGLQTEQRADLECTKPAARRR

For Factor H (mFH) (from UniProt P06909), the Kd is listed as 1 µM.
